The series deals with T1, HicB (HicB-His) (Neisseria gonorrhoeae FA1090) (UniProt Q5F6D2).
T1 sequence: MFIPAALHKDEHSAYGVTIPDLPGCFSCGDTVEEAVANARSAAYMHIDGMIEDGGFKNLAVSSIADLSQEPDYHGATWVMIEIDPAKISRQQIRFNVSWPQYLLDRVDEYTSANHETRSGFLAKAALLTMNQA
Kind of series: competition. The following applies: EMSA: 20 mM HEPES pH 7.6, 1 mM EDTA, 10 mM (NH4)2SO4, 1 mM DTT, 0.2% Tween-20, 30 mM KCl, 1.25 ng/uL calf thymus DNA, 30 min at 30 C.

With “TTCACCCTTGCCTGTGCTGCCAAAGCAGCCATCGGCGGTTTTGCTTTCTGTTCCACTTTCCGTCGCGTTACCGCGCCCGGCCGTTAACCGGCATTCTACCCTGCGGAGCCCGGACTTTCCTCCCCGTAT (double strand) [rnpB fragment]”, the binding result was “no binding”.

The values above are taken from publication PMC12421842.
